The results in this text go back to patent US20210238260.

As a reminder, the kcat/KM is the second-order rate constant that governs catalysis at low substrate concentration.

The labels stand for the following.
B1: FIXa variant D104N/K106S/R318Y/R338E/E410N (protein)
chain 1: YNSGKLEEFVQGNLERECMEEKCSFEEAREVFENTERTTEFWKQYVDGDQCESNPCLNGGSCKDDINSYECWCPFGFEGKNCELDVTCNIKNGRCEQFCKNSANNSVVCSCTEGYRLAENQKSCEPAVPFPCGRVSVSQTSKLTR
chain 2: VVGGEDAKPGQFPWQVVLNGKVDAFCGGSIVNEKWIVTAAHCVETGVKITVVAGEHNIEETEHTEQKRNVIRIIPHHNYNAAINKYNHDIALLELDEPLVLNSYVTPICIADKEYTNIFLKFGSGYVSGWGRVFHKGYSALVLQYLRVPLVDRATCLESTKFTIYNNMFCAGFHEGGRDSCQGDSGGPHVTEVEGTSFLTGIISWGEECAMKGKYGIYTKVSRYVNWIKNKTKLT
B2: FIXa-D104N/K106S/Y155F/K247N/N249S/R318Y/R338E/R403E/E410N (protein)
chain 1: YNSGKLEEFVQGNLERECMEEKCSFEEAREVFENTERTTEFWKQYVDGDQCESNPCLNGGSCKDDINSYECWCPFGFEGKNCELDVTCNIKNGRCEQFCKNSANNSVVCSCTEGYRLAENQKSCEPAVPFPCGRVSVSQTSKLTR
chain 2: VVGGEDAKPGQFPWQVVLNGKVDAFCGGSIVNEKWIVTAAHCVETGVKITVVAGEHNIEETEHTEQNRSVIRIIPHHNYNAAINKYNHDIALLELDEPLVLNSYVTPICIADKEYTNIFLKFGSGYVSGWGRVFHKGYSALVLQYLRVPLVDRATCLESTKFTIYNNMFCAGFHEGGRDSCQGDSGGPHVTEVEGTSFLTGIISWGEECAMKGKYGIYTKVSEYVNWIKNKTKLT
B3: FIXa variant A103N/N105S/R318Y/R338E/R403E/E410N (protein)
chain 1: YNSGKLEEFVQGNLERECMEEKCSFEEAREVFENTERTTEFWKQYVDGDQCESNPCLNGGSCKDDINSYECWCPFGFEGKNCELDVTCNIKNGRCEQFCKNSNDSKVVCSCTEGYRLAENQKSCEPAVPFPCGRVSVSQTSKLTR
chain 2: VVGGEDAKPGQFPWQVVLNGKVDAFCGGSIVNEKWIVTAAHCVETGVKITVVAGEHNIEETEHTEQKRNVIRIIPHHNYNAAINKYNHDIALLELDEPLVLNSYVTPICIADKEYTNIFLKFGSGYVSGWGRVFHKGYSALVLQYLRVPLVDRATCLESTKFTIYNNMFCAGFHEGGRDSCQGDSGGPHVTEVEGTSFLTGIISWGEECAMKGKYGIYTKVSEYVNWIKNKTKLT
B4: FIXa variant Y155F/R318Y/R338E/E410N (protein)
chain 1: YNSGKLEEFVQGNLERECMEEKCSFEEAREVFENTERTTEFWKQYVDGDQCESNPCLNGGSCKDDINSYECWCPFGFEGKNCELDVTCNIKNGRCEQFCKNSADNKVVCSCTEGYRLAENQKSCEPAVPFPCGRVSVSQTSKLTR
chain 2: VVGGEDAKPGQFPWQVVLNGKVDAFCGGSIVNEKWIVTAAHCVETGVKITVVAGEHNIEETEHTEQKRNVIRIIPHHNYNAAINKYNHDIALLELDEPLVLNSYVTPICIADKEYTNIFLKFGSGYVSGWGRVFHKGYSALVLQYLRVPLVDRATCLESTKFTIYNNMFCAGFHEGGRDSCQGDSGGPHVTEVEGTSFLTGIISWGEECAMKGKYGIYTKVSRYVNWIKNKTKLT
B5: FIXa variant R318Y/R338E/R403E/E410N (protein)
chain 1: YNSGKLEEFVQGNLERECMEEKCSFEEAREVFENTERTTEFWKQYVDGDQCESNPCLNGGSCKDDINSYECWCPFGFEGKNCELDVTCNIKNGRCEQFCKNSADNKVVCSCTEGYRLAENQKSCEPAVPFPCGRVSVSQTSKLTR
chain 2: VVGGEDAKPGQFPWQVVLNGKVDAFCGGSIVNEKWIVTAAHCVETGVKITVVAGEHNIEETEHTEQKRNVIRIIPHHNYNAAINKYNHDIALLELDEPLVLNSYVTPICIADKEYTNIFLKFGSGYVSGWGRVFHKGYSALVLQYLRVPLVDRATCLESTKFTIYNNMFCAGFHEGGRDSCQGDSGGPHVTEVEGTSFLTGIISWGEECAMKGKYGIYTKVSEYVNWIKNKTKLT
B6: FIXa variant D203N/F205T/R318Y/E410N (protein)
chain 1: YNSGKLEEFVQGNLERECMEEKCSFEEAREVFENTERTTEFWKQYVDGDQCESNPCLNGGSCKDDINSYECWCPFGFEGKNCELDVTCNIKNGRCEQFCKNSADNKVVCSCTEGYRLAENQKSCEPAVPFPCGRVSVSQTSKLTR
chain 2: VVGGEDAKPGQFPWQVVLNGKVNATCGGSIVNEKWIVTAAHCVETGVKITVVAGEHNIEETEHTEQKRNVIRIIPHHNYNAAINKYNHDIALLELDEPLVLNSYVTPICIADKEYTNIFLKFGSGYVSGWGRVFHKGYSALVLQYLRVPLVDRATCLRSTKFTIYNNMFCAGFHEGGRDSCQGDSGGPHVTEVEGTSFLTGIISWGEECAMKGKYGIYTKVSRYVNWIKNKTKLT
B7: FIXa variant A103N/N105S/Y155F/R318Y/R338E/R403E/E410N (protein)
chain 1: YNSGKLEEFVQGNLERECMEEKCSFEEAREVFENTERTTEFWKQYVDGDQCESNPCLNGGSCKDDINSYECWCPFGFEGKNCELDVTCNIKNGRCEQFCKNSNDSKVVCSCTEGYRLAENQKSCEPAVPFPCGRVSVSQTSKLTR
chain 2: VVGGEDAKPGQFPWQVVLNGKVDAFCGGSIVNEKWIVTAAHCVETGVKITVVAGEHNIEETEHTEQKRNVIRIIPHHNYNAAINKYNHDIALLELDEPLVLNSYVTPICIADKEYTNIFLKFGSGYVSGWGRVFHKGYSALVLQYLRVPLVDRATCLESTKFTIYNNMFCAGFHEGGRDSCQGDSGGPHVTEVEGTSFLTGIISWGEECAMKGKYGIYTKVSEYVNWIKNKTKLT
B8: FIXa variant D104N/K106S/R318Y/R338E/R403E/E410N (protein)
chain 1: YNSGKLEEFVQGNLERECMEEKCSFEEAREVFENTERTTEFWKQYVDGDQCESNPCLNGGSCKDDINSYECWCPFGFEGKNCELDVTCNIKNGRCEQFCKNSANNSVVCSCTEGYRLAENQKSCEPAVPFPCGRVSVSQTSKLTR
chain 2: VVGGEDAKPGQFPWQVVLNGKVDAFCGGSIVNEKWIVTAAHCVETGVKITVVAGEHNIEETEHTEQKRNVIRIIPHHNYNAAINKYNHDIALLELDEPLVLNSYVTPICIADKEYTNIFLKFGSGYVSGWGRVFHKGYSALVLQYLRVPLVDRATCLESTKFTIYNNMFCAGFHEGGRDSCQGDSGGPHVTEVEGTSFLTGIISWGEECAMKGKYGIYTKVSEYVNWIKNKTKLT
B9: FIXa variant Y155F/R318Y/R338E/R403E/E410N (protein)
chain 1: YNSGKLEEFVQGNLERECMEEKCSFEEAREVFENTERTTEFWKQYVDGDQCESNPCLNGGSCKDDINSYECWCPFGFEGKNCELDVTCNIKNGRCEQFCKNSADNKVVCSCTEGYRLAENQKSCEPAVPFPCGRVSVSQTSKLTR
chain 2: VVGGEDAKPGQFPWQVVLNGKVDAFCGGSIVNEKWIVTAAHCVETGVKITVVAGEHNIEETEHTEQKRNVIRIIPHHNYNAAINKYNHDIALLELDEPLVLNSYVTPICIADKEYTNIFLKFGSGYVSGWGRVFHKGYSALVLQYLRVPLVDRATCLESTKFTIYNNMFCAGFHEGGRDSCQGDSGGPHVTEVEGTSFLTGIISWGEECAMKGKYGIYTKVSEYVNWIKNKTKLT
B10: FIXa variant D104N/K106S/Y155F/R318Y/R338E/R403E/E410N (protein)
chain 1: YNSGKLEEFVQGNLERECMEEKCSFEEAREVFENTERTTEFWKQYVDGDQCESNPCLNGGSCKDDINSYECWCPFGFEGKNCELDVTCNIKNGRCEQFCKNSANNSVVCSCTEGYRLAENQKSCEPAVPFPCGRVSVSQTSKLTR
chain 2: VVGGEDAKPGQFPWQVVLNGKVDAFCGGSIVNEKWIVTAAHCVETGVKITVVAGEHNIEETEHTEQKRNVIRIIPHHNYNAAINKYNHDIALLELDEPLVLNSYVTPICIADKEYTNIFLKFGSGYVSGWGRVFHKGYSALVLQYLRVPLVDRATCLESTKFTIYNNMFCAGFHEGGRDSCQGDSGGPHVTEVEGTSFLTGIISWGEECAMKGKYGIYTKVSEYVNWIKNKTKLT
B11: FIXa variant R318Y/R403E/E410N (protein)
chain 1: YNSGKLEEFVQGNLERECMEEKCSFEEAREVFENTERTTEFWKQYVDGDQCESNPCLNGGSCKDDINSYECWCPFGFEGKNCELDVTCNIKNGRCEQFCKNSADNKVVCSCTEGYRLAENQKSCEPAVPFPCGRVSVSQTSKLTR
chain 2: VVGGEDAKPGQFPWQVVLNGKVDAFCGGSIVNEKWIVTAAHCVETGVKITVVAGEHNIEETEHTEQKRNVIRIIPHHNYNAAINKYNHDIALLELDEPLVLNSYVTPICIADKEYTNIFLKFGSGYVSGWGRVFHKGYSALVLQYLRVPLVDRATCLRSTKFTIYNNMFCAGFHEGGRDSCQGDSGGPHVTEVEGTSFLTGIISWGEECAMKGKYGIYTKVSEYVNWIKNKTKLT
B12: FIXa variant Y155F/R318Y/R403E/E410N (protein)
chain 1: YNSGKLEEFVQGNLERECMEEKCSFEEAREVFENTERTTEFWKQYVDGDQCESNPCLNGGSCKDDINSYECWCPFGFEGKNCELDVTCNIKNGRCEQFCKNSADNKVVCSCTEGYRLAENQKSCEPAVPFPCGRVSVSQTSKLTR
chain 2: VVGGEDAKPGQFPWQVVLNGKVDAFCGGSIVNEKWIVTAAHCVETGVKITVVAGEHNIEETEHTEQKRNVIRIIPHHNYNAAINKYNHDIALLELDEPLVLNSYVTPICIADKEYTNIFLKFGSGYVSGWGRVFHKGYSALVLQYLRVPLVDRATCLRSTKFTIYNNMFCAGFHEGGRDSCQGDSGGPHVTEVEGTSFLTGIISWGEECAMKGKYGIYTKVSEYVNWIKNKTKLT
B13: FIXa variant K228N/R318Y/E410N (protein)
chain 1: YNSGKLEEFVQGNLERECMEEKCSFEEAREVFENTERTTEFWKQYVDGDQCESNPCLNGGSCKDDINSYECWCPFGFEGKNCELDVTCNIKNGRCEQFCKNSADNKVVCSCTEGYRLAENQKSCEPAVPFPCGRVSVSQTSKLTR
chain 2: VVGGEDAKPGQFPWQVVLNGKVDAFCGGSIVNEKWIVTAAHCVETGVNITVVAGEHNIEETEHTEQKRNVIRIIPHHNYNAAINKYNHDIALLELDEPLVLNSYVTPICIADKEYTNIFLKFGSGYVSGWGRVFHKGYSALVLQYLRVPLVDRATCLRSTKFTIYNNMFCAGFHEGGRDSCQGDSGGPHVTEVEGTSFLTGIISWGEECAMKGKYGIYTKVSRYVNWIKNKTKLT

This data set deals with Factor X (FX), P00742.
Chain of Factor X (FX), P00742 (P00742 whole entry, looked up): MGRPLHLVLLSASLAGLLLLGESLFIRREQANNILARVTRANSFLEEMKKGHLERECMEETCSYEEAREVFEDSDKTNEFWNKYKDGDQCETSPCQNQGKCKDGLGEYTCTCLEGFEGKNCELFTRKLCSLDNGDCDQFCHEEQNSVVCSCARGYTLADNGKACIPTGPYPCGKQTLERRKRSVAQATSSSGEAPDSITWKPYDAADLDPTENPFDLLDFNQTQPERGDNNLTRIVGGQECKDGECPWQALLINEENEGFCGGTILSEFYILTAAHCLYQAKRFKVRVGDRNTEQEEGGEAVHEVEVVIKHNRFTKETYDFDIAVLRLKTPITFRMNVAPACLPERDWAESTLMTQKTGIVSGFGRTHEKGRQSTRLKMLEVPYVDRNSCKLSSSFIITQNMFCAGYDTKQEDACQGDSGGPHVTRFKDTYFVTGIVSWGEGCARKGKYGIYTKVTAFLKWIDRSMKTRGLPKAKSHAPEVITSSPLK
For B1, the “% of WT kcat/KM” value is 564% and the kcat/KM amounted to 2.6e+08 M⁻¹ s⁻¹.
For B2, the “% of WT kcat/KM” value was 292% and the kcat/KM came out at 1.3e+08 M⁻¹ s⁻¹.
Consider B3, for which the “% of WT kcat/KM” value amounted to 318% and the kcat/KM stood at 1.5e+08 M⁻¹ s⁻¹.
As for B4, the “% of WT kcat/KM” value worked out at 810% and the kcat/KM amounted to 3.7e+08 M⁻¹ s⁻¹.
B5: the “% of WT kcat/KM” value is recorded as 320% and the kcat/KM stood at 1.5e+08 M⁻¹ s⁻¹.
B6: the “% of WT kcat/KM” value was found to be 85% and the kcat/KM was determined as 3.9e+07 M⁻¹ s⁻¹.
With B7, the “% of WT kcat/KM” value worked out at 274% and the kcat/KM was 1.3e+08 M⁻¹ s⁻¹.
In the case of B8, the “% of WT kcat/KM” value is recorded as 366% and the kcat/KM came out at 1.7e+08 M⁻¹ s⁻¹.
As to B9, the “% of WT kcat/KM” value is on record as 406% and the kcat/KM worked out at 1.9e+08 M⁻¹ s⁻¹.
As for B10, the “% of WT kcat/KM” value came out at 382% and the kcat/KM was 1.8e+08 M⁻¹ s⁻¹.
Turning to B11, the “% of WT kcat/KM” value was found to be 54% and the kcat/KM was determined as 2.5e+07 M⁻¹ s⁻¹.
On to B12, for which the “% of WT kcat/KM” value is 78% and the kcat/KM stood at 3.6e+07 M⁻¹ s⁻¹.
As to B13, the “% of WT kcat/KM” value was determined as 264% and the kcat/KM amounted to 1.2e+08 M⁻¹ s⁻¹.
